# B1: outer membrane protein OmpF (receptor)
# chain: AEIYNKDGNKVDLYGKAVGLHYFSKGNGENSYGGNGDMTYARLGFKGETQINSDLTGYGQWEYNFQGNNSEGADAQTGNKTRLAFAGLKYADVGSFDYGRNYGVVYDALGYTDMLPEFGGDTAYSDDFFVGRVGGVATYRNSNFFGLVDGLNFAVQYLGKNERDTARRSNGDGVGGSISYEYEGFGIVGAYGAADRTNLQEAQPLGNGKKAEQWATGLKYDANNIYLAANYGETRNATPITNKFTNTSGFANKTQDVLLVAQYQFDFGLRPSIAYTKSKAKDVEGIGDVDLVNYFEVGATYYFNKNMSTYVDYIINQIDSDNKLGVGSDDTVAVGIVYQF
# modifications: partially deuterated (d-OmpF) in the SANS samples; hydrogenous or deuterated in the neutron reflection samples
# Target: the molecule itself
# Experiment: small angle neutron scattering
protein,measurement,value
B1,stoichiometry N,3
